Results published in PMC3855555.

Key:
Assay in all cases: pyrophosphate release, enzyme-coupled colorimetric assay
Type in all cases: biochemical, Mycolicibacterium smegmatis
Conditions in all cases: 20 mM Tris-HCl pH 7.5, 5 mM MgSO4, 100 mM NaCl, 37°C
[1] = substrate: Nc1nc(=O)n([C@H]2C[C@H](O)[C@@H](COP(=O)(O)OP(=O)(O)OP(=O)(O)O)O2)cc1O
[2] = substrate: Nc1nc(O)nc2c1ncn2[C@H]1C[C@H](O)[C@@H](COP(=O)(O)OP(=O)(O)OP(=O)(O)O)O1
[3] = substrate: O=Cc1cn([C@H]2C[C@H](O)[C@@H](COP(=O)(O)OP(=O)(O)OP(=O)(O)O)O2)c(=O)[nH]c1=O

B1: Msm MazG (Mycolicibacterium smegmatis MC2 155) (protein)
chain: MIVVLVDPRRPALVPVDAVEFLTGDVQYTEEMPVKVPWSLPSARPAYDGEDAPVLLSSDPEHPVVKARLAAGDRLIAAPEPQPGERLVDAVALMDKLRTSGPWESEQTHDSLRRYLLEETYELFDAVRSGNADELREELGDVLLQVLFHARIAEDAPHHPFSIDDVADALVRKLGNRVPAVLAGESISLDEQLAQWEERKAQEKKVKARASSMDDVPTGQPALALAQKVLARVSQAGLPAELIPASLTSVSVSADTDSENELRTAVLEFMDTVREVEAAVAAGRRGEDVPEELDVAPLGVISEDEWRAYWPGAESSASEAEPEE
notes: heterologously expressed, purified to nearly SDS-PAGE homogeneity; strain given for the bacteria, not for the protein
Protein B1 has a Km [1] of 5.6 ± 2.2 µM, a kcat [1] of 0.8 min⁻¹ and a Km [2] of 311 µM. It also gave a Km [3] of 434 ± 82 µM and a kcat [3] of 60 min⁻¹.
